# Measured values taken from IntAct's records for PubMed 21642953.
# Key:
# dcc_human DCC = dcc_human DCC (UniProt P43146)
# tbb2b_human TUBB2B = tbb2b_human TUBB2B (UniProt Q9BVA1)
# Sequence of tbb2b_human TUBB2B (Q9BVA1 whole entry): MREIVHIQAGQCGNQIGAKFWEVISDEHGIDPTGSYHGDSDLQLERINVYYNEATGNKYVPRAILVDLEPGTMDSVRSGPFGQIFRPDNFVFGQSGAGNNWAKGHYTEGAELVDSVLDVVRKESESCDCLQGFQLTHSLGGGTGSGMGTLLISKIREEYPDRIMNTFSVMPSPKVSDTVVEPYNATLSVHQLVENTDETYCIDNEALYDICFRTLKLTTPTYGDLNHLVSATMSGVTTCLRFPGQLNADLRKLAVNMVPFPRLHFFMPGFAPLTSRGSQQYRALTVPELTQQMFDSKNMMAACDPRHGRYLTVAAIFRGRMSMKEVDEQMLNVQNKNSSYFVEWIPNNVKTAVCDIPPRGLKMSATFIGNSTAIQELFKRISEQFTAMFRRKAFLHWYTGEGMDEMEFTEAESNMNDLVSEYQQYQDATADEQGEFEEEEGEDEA
# Sequence of dcc_human DCC (P43146 whole entry): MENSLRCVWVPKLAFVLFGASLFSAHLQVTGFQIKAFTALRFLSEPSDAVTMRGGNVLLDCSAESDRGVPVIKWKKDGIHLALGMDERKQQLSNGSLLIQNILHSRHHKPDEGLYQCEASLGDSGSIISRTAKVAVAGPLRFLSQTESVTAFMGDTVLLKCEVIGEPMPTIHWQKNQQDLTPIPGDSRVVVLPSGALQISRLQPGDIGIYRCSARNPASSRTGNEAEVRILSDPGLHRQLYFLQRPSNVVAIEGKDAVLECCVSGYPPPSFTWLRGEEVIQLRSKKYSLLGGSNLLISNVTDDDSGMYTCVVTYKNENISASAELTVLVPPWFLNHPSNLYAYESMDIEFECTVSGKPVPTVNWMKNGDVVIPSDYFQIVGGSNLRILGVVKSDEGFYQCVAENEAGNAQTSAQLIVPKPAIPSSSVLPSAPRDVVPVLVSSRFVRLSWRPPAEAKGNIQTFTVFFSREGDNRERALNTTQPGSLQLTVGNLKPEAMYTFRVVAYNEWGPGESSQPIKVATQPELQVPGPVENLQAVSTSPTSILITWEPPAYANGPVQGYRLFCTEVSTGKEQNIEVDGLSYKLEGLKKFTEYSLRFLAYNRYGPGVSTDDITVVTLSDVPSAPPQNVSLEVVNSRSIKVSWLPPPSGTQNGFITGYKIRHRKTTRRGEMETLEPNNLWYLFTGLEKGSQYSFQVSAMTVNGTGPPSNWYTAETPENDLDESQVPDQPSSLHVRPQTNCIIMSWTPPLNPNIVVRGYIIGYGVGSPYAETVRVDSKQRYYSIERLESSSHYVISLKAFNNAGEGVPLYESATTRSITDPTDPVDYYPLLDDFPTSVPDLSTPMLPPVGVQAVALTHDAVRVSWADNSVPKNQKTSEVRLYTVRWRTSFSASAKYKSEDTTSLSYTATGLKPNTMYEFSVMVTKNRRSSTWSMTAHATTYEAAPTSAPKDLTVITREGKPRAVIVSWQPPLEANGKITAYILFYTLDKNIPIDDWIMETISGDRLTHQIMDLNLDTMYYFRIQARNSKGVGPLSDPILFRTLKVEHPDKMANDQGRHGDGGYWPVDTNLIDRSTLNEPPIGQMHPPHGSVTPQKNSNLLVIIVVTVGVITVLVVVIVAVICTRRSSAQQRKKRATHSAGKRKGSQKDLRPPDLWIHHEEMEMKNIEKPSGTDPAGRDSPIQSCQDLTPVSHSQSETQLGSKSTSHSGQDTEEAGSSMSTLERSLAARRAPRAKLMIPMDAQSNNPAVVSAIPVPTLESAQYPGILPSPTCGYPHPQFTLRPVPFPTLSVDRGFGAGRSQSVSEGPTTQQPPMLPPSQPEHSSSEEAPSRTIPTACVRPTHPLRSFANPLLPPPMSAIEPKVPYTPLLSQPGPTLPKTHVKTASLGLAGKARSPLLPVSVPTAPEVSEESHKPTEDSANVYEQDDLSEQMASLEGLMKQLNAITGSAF
effect of a mutation on the interaction (dcc_human DCC),effect of a mutation on the interaction (tbb2b_human TUBB2B),Substance
disrupting interaction,–,"Unconventional myosin-X (Homo sapiens), Q9HD67 F2002K"
–,disrupting interaction,"Unconventional myosin-X (Homo sapiens), Q9HD67 K1650D"
–,disrupting interaction,"Unconventional myosin-X (Homo sapiens), Q9HD67 K1647D"
